The data set deals with the molecule itself. Kind of data set: 2D electron crystallography; lysenin in a lipid bilayer (liposomes containing SM); 2D crystals, trigonal array with space group p3, projection map at 14 Å.

B1: lysenin (natural protein)
chain: MSAKAAEGYEQIEVDVVAVWKEGYVYENRGSTSVDQKITITKGMKNVNSETRTVTATHSIGSTISTGDAFEIGSVEVSYSHSHEESQVSMTETEVYESKVIEHTITIPPTSKFTRWQLNADVGGADIEYMYLIDEVTPIGGTQSIPQVITSRAKIIVGRQIILGKTEIRIKHAERKEYMTVVSRKSWPAATLGHSKLFKFVLYEDWGGFRIKTLNTMYSGYEYAYSSDQGGIYFDQGTDNPKQRWAINKSLPLRHGDVVTFMNKYFTRSGLCYDDGPATNVYCLDKREDKWILEVVG
notes: A thrombin cleavage site and six histidines follow the C terminus (printed as …); also called WT lysenin; native lysenin; source: E. coli BL21, purified (Ni-NTA IMAC, SEC)
With B1, the binding result is on record as “binds”.

The record behind these values is article PMC3526787, “Structures of Lysenin Reveal a Shared Evolutionary Origin for Pore-Forming Proteins And Its Mode of Sphingomyelin Recognition” (Structure(London, England:1993), 2012).
